From PMC10625714 (Nature chemical biology, 2023)

Biological target: the molecule itself
Assay: cryo-EM structure

B1: nuclease-deficient AsCas12f (AsCas12f-D225A) (enzyme, Acidibacillus sulfuroxidans)
chain: MIKVYRYEIVKPLDLDWKEFGTILRQLQQETRFALNKATQLAWEWMGFSSDYKDNHGEYPKSKDILGYTNVHGYAYHTIKTKAYRLNSGNLSQTIKRATDRFKAYQKEILRGDMSIPSYKRDIPLDLIKENISVNRMNHGDYIASLSLLSNPAKQEMNVKRKISVIIIVRGAGKTIMDRILSGEYQVSASQIIHDDRKNKWYLNISYDFEPQTRVLDLNKIMGIALGVAVAVYMAFQHTPARYKLEGGEIENFRRQVESRRISMLRQGKYAGGARGGHGRDKRIKPIEQLRDKIANFRDTTNHRYSRYIVDMAIKEGCGTIQMEDLTNIRDIGSRFLQNWTYYDLQQKIIYKAEEAGIKVIKIDPQYTSQRCSECGNIDSGNRIGQAIFKCRACGYEANADYNAARNIAIPNIDKIIAESIK
stoichiometry N: 2
